The target in one test is T1, murine MCP-1 (JE) (mouse, UniProt P10148 24-148).
T1 construct: also called mMCP-1 (JE); muMCP-1
As to the kind of experiment: ELISA on plate-coated murine MCP-1, anti-human IgG-HRP; y axis unlabelled, OD 405 nm per paragraph 382. The method, then: (§1) Binding specificities of chimeric 11K2 and the four versions of humanized 11K2 (H1-L1, H1-L2, H2-L1, and H2-L2) were determined by ELISA, according to the protocol described in Example 1.
(§2) ELISA plates (Corning, Inc. Cat#3369) were coated with 50 ng MCP-1 per well overnight at 4° C. Plates were washed then blocked with PBS/5% milk for 1.5 hrs at 25° C. Another wash was followed by incubation with the 11K2 mAbs (or 3G9 isotype control) at the concentrations indicated for 1 hr at 25° C. After washing, the plates were incubated with secondary antibody (anti-human IgG-HRP, Jackson Immunoresearch Cat#109-036-088) for 1 hr at 25° C. Plates were then washed and developed using the ABTS Peroxidase Substrate Kit (Vector Laboratories Cat#SK-4500). OD (405 nm) values were plotted as a function of 11K2 mAb concentration.
Background: An ELISA detects its analyte on a solid surface through an enzyme-linked reagent.

The target in test [1] is T2, human MCP-1 (human, UniProt P13500 24-99).
T2 construct: also called hMCP-1; huMCP-1
As to the kind of experiment: ELISA on plate-coated human MCP-1, anti-human IgG-HRP; y axis unlabelled, OD 405 nm per paragraph 382. Here is the method: as §1, §2

Test [2] concerns the target T3, human MCP-2 (human, UniProt P80075 24-99).
T3 construct: also called hMCP-2; huMCP-2
T3 sequence (looked up): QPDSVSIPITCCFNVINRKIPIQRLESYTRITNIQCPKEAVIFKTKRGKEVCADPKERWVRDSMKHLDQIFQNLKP
As to the kind of experiment: ELISA on immobilised MCP-2, absorbance 450 nm.

The target in the next test is T4, human MCP-3 (human, UniProt P80098 24-99).
T4 construct: also called hMCP-3
Nature of the test: ELISA.

In the next test the target is T5, human MCP-4 (human, UniProt Q99616 24-98, limits assumed).
T5 construct: also called hMCP-4
As to the kind of experiment: ELISA, purified mAb. Here is the method:
(§3) ELISA specificity assays were performed using purified monoclonal antibodies to confirm the binding specificities of the supernatant MCP-specific monoclonal antibodies described above. Antibodies were purified by Protein A affinity column chromatography, according to standard methods known in the art.
(§4) ELISA was performed as previously described in Example 1. Briefly, MaxiSorp 384 well plates were coated with 15-20 μl antigen in PBS. Recombinant purified human antigens included: MCP-1, MCP-2, MCP-3, MCP-4, IL-8, eotaxin, murine MCP-1 (JE), murine MCP-3, murine MCP-5, and rat MCP-1. All antigens, including MCP-3, were immobilized. Plates were washed and purified monoclonal antibody (10 μg/ml) was added to each well and incubated for 1 hour at room temperature. Plates were washed and wells were incubated with 20 μl/well of a 1:25,000 dilution of goat anti-mouse IgG peroxidase conjugate (Jackson Catalog Number 515-036-003). Plates were incubated for 1 hour at room temperature, washed, and 20 μl/well of substrate (, tetramethylbenzidine, Jackson, Catalog Number 515-036-062) was added. Reaction was allowed to proceed and stopped by addition of 20 μl/well of 2M H₂SO₄. Antibodies 1A1 bound specifically to hMCP-1, hMCP-2, hMCP-3, and mMCP-1. Antibodies 11K2, 4N4, 5A13, 6D21, 615, and 7H1 bound specifically to hMCP-1, hMCP-2, hMCP-3, mMCP-1, mMCP-3, and mMCP-5.

The next test addresses T6, human IL-8 (human, UniProt P10145 28-99, limits assumed).
T6 construct: also called hIL8
Nature of the test: ELISA, purified mAb. Here is the method:
as §3, §4

The next test has as its target T7, human eotaxin (human, UniProt P51671 24-97).
T7 construct: also called hEotaxin
Nature of the test: ELISA, purified mAb. The method, then:
as §3, §4

The target in test [3] is T3, human MCP-2. Nature of the test: KinExA, in solution. The method, then: (§5) Polymethylmethacrylate beads activated with NHS were coated with 10 μg recombinant human MCP-1 in 1 ml buffer. The beads were packed into a column in the KinExA instrument for each sample. This packed bead column is able to capture free MCP mAb or Fab flowed through the column. The amount of free mAb or Fab in solution was determined using a secondary goat anti-mouse heavy and light chain IgG-Cy5 conjugate.
(§6) A fixed amount of 11K2 mAb, 1A1 mAb, 11K2 Fab, or 1A1 Fab was incubated with various amounts of human MCP-1, MCP-2 or MCP-3 for three hours. The amount of uncomplexed free antibody remaining in solution was determined by flowing these mixtures over the MCP-1-loaded bead column and labeling with the Cy5 secondary antibody. The fluorescent signal was plotted against the MCP concentration and the affinity was determined using a quadratic curve fit
(In general: A kinetic exclusion assay measures how much of one partner remains free in solution.)

The target in test [4] is T2, human MCP-1. As to the kind of experiment: KinExA, in solution. Here is the method:
as §5, §6

A further test addresses T8, human fractalkine (human, UniProt P78423 25-100, limits assumed).
T8 sequence (looked up): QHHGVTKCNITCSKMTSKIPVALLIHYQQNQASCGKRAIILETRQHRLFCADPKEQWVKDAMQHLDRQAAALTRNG
Nature of the test: ELISA, supernatant. The method, then:
(§7) MaxiSorp 384 well plates were coated with 15-20 μl antigen in PBS. Recombinant purified human antigens included: MCP-1, MCP-2, MCP-3, MCP-4, IL-8, eotaxin, fractalkine, Gcp-2, DC-CK (Gcp-2 and DC-CK are also chemokines). Plates were incubated with antigen for 2 hours at 37° C. or overnight at 4° C. Non-specific sites were blocked with 80 μl/well of 1% BSA/PBS for 1 hour at room temperature. Plates were washed and 15 μl of hybridoma supernatant was added to each well and incubated for 1 hour at room temperature. Plates were washed and wells were incubated with 20 μl/well of a 1:25 000 dilution of goat anti-mouse IgG peroxidase conjugate (Jackson Catalog Number 515-036-003). Plates were incubated for 1 hour at room temperature, washed, and 20 μl/well of substrate (TMB, tetramethylbenzidine, Jackson, Catalog Number 515-036-062) was added. Reaction was allowed to proceed and stopped by addition of 20 μl/well of 2M H₂SO₄. Reactive clones were picked for further analysis. Isotyping of hybridoma supernatants was performed by antigen-dependent ELISA. Briefly, wells were coated with 50 μl of human MCP-1 (5 μg/ml) for 1 hour at 37° C. Wells were washed 4 times and blocked with PBS/1% BSA. Isotyping of hybridoma supernatants was then performed using a mouse immunoglobulin screening/isotyping kit (Zymed Laboratories, San Francisco, —CA) as recommended by the manufacturer.

For the next test, the target named is human Gcp-2 (human, UniProt P80162 38-114, limits assumed). Nature of the test: ELISA, supernatant. The method, then: as §7
The target of another test is T9, human DC-CK (human, UniProt P55774 21-89).
T9 sequence (looked up): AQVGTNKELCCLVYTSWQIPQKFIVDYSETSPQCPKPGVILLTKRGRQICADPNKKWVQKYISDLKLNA
Nature of the test: ELISA, supernatant. The method, then:
as §7

Test [5] addresses T3, human MCP-2. Nature of the test: KinExA, in solution; intact bivalent mAb, not Fab. Here is the method:
as §5, §6

B1: humanized 11K2 H1-L1 (antibody, human IgG1, kappa, V domains shown)
VH: QVQLVQSGAEVKKPGSSVKVSCKASGLNIKDTYMHWVRQAPGQGLEWIGRIDPANGNTKFDPKFQGRATITADTSTSTAYMELSSLRSEDTAVYYCARGVFGFFDYWGQGTTVTVSS
VL: DIQMTQSPSSLSASVGDRVTITCKATEDIYNRLAWYQQKPGKAPKLLISGATSLETGVPSRFSGSGSGKDYTLTISSLQPEDFATYYCQQFWSAPYTFGGGTKVEIKR
notes: human IgG1 kappa; also called hu11K2
Usually EC50 (read off the curve) stands for the concentration giving half of the maximal effect. Read a high EC50 (read off the curve) as weaker potency. For B1, the binding result with murine MCP-1 (JE) is reported as “binds”; with human MCP-3, “no binding”. Further, the “EC50 (read off the curve)” value is approximately 0.02 µg/mL in the test with human MCP-1 [1] and approximately 0.3 µg/mL with human MCP-2 [2].

B2: humanized 11K2 H2-L2 (antibody, human IgG1, V domains shown)
VH: QVQLVQSGAEVKKPGSSVKVSCKASGLTISDTYMHWVRQAPGQGLEWMGRIDPANGNTKFDPKFQGRVTITADTSTSTAYMELSSLRSEDTAVYYCARGVFGFFDYWGQGTTVTVSS
VL: DIQMTQSPSSLSASVGDRVTITCKATEDIYNRLAWYQQKPGKAPKLLISGATSLETGVPSRFSGSGSGTDYTLTISSLQPEDFATYYCQQFWSAPYTFGGGTKVEIKR
notes: human IgG1 kappa
Turning to B2, the “EC50 (read off the curve)” value in the test with human MCP-1 [1] was approximately 0.02 µg/mL; in the test with human MCP-2 [2] it was approximately 0.3 µg/mL. Besides, the binding result in the test with human MCP-3 is reported as “no binding”.

B3: humanized 11K2 H2-L1 (antibody, human IgG1, kappa, V domains shown)
VH: QVQLVQSGAEVKKPGSSVKVSCKASGLTISDTYMHWVRQAPGQGLEWMGRIDPANGNTKFDPKFQGRVTITADTSTSTAYMELSSLRSEDTAVYYCARGVFGFFDYWGQGTTVTVSS
VL: DIQMTQSPSSLSASVGDRVTITCKATEDIYNRLAWYQQKPGKAPKLLISGATSLETGVPSRFSGSGSGKDYTLTISSLQPEDFATYYCQQFWSAPYTFGGGTKVEIKR
notes: human IgG1 kappa
As to B3, the results for the binding result with murine MCP-1 (JE) and with human MCP-3 were “binds” and “no binding”, respectively. For the same molecule, the 50% effective concentration (EC50 (read off the curve)) was approximately 0.02 µg/mL with human MCP-1 [1] and approximately 0.2 µg/mL with human MCP-2 [2].

B4: chimeric 11K2 antibody (antibody, human IgG1, kappa, V domains shown)
VH: EVQLQQSGAELVKAGASVKLSCPASGLNIKDTYMHWVKQRPEQGLEWIGRIDPANGNTKFDPKFQGKATITADTSSNTAYLQLSSLTSEDTAVYYCARGVFGFFDYWGQGTTLTVSS
VL: DIQMTQSSSSFSVSLGDRVTITCKATEDIYNRLAWYQQKPGSAPRLLISGATSLETGVPSRFSGSGSGKDYTLSITSLQTEDVATYYCQQFWSAPYTFGGGTKLEIKR
notes: murine 11K2 variable domains with human IgG1 and kappa constant regions; also called Chimera; ch11K2
As to B4, the “EC50 (read off the curve)” value with murine MCP-1 (JE) and with human MCP-1 [1] was approximately 0.02 µg/mL throughout.

B5: mouse monoclonal antibody 11K2 (antibody, V domains shown)
VH: EVQLQQSGAELVKAGASVKLSCPASGLNIKDTYMHWVKQRPEQGLEWIGRIDPANGNTKFDPKFQGKATITADTSSNTAYLQLSSLTSEDTAVYYCARGVFGFFDYWGQGTTLTVSS
VL: DIQMTQSSSSFSVSLGDRVTITCKATEDIYNRLAWYQQKPGSAPRLLISGATSLETGVPSRFSGSGSGKDYTLSITSLQTEDVATYYCQQFWSAPYTFGGGTKLEIK
notes: mouse IgG1; also called 11K2.1; mu11K2
Take B5: the binding result was “no binding (tested: 10 µg/ml)” in the test with human MCP-4; “no binding (tested: 10 µg/ml)” with human IL-8; “no binding (tested: 10 µg/ml)” in the test with human eotaxin; “no binding” in the test with human fractalkine; “no binding” with human Gcp-2; “no binding” in the test with human DC-CK. For the same molecule, the Kd with human MCP-2 [3] is 18 pM; in the test with human MCP-1 [4], less than 0.4 pM.

B6: mouse monoclonal antibody 1A1 (antibody, V domains shown)
VH: EVQLQQSGAELVRSGASVKLSCTASGFNIKDNYMHWVKQRPEQGLEWIGWIDPENGDTEYAPKFQGKATMTADTSSNTAYLQLSSLTSEDTAVYYCNTWAYYGTSYGGFAYWGQGTTVTVSS
VL: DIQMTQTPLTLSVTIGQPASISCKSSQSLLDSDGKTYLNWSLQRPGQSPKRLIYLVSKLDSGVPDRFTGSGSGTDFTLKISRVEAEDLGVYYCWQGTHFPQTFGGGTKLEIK
notes: mouse IgG1; also called 1A1.1; mu1A1
As to B6, the Kd in the test with human MCP-2 [5] was 1.2 pM; with human MCP-1 [4], less than 0.7 pM. Also, the binding result is recorded as “no binding (tested: 10 µg/ml)” with human MCP-4; “no binding (tested: 10 µg/ml)” with human IL-8; “no binding (tested: 10 µg/ml)” in the test with human eotaxin; “no binding” with human fractalkine; “no binding” in the test with human Gcp-2; “no binding” in the test with human DC-CK.

For the origin of these results see patent US20070134236A1 (Biogen, published 2007).
